The target of assay [1] is 血清淀粉样蛋白A (Serum amyloid A, SAA), 购自Yashraj biotechnology limited, 货号FRSAA-61 (UniProt P0DJI8). Description: biosensor with AMC sensors, antibody captured at 10 ug/ml, SAA in a dilution series in PBST.
Assay [2] deals with T1, 血清淀粉样蛋白A (Serum amyloid A, SAA), 购自Yashraj biotechnology limited, 货号FRSAA-61 (UniProt P0DJI8 19-122, limits assumed).
T1 construct: Bought antigen
T1 sequence (looked up): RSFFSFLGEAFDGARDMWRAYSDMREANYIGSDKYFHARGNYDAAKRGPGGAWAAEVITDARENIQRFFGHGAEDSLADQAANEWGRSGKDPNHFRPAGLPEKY
The description is as above.

Substitutions are numbered along the chain they refer to.

What is called Kd is the free concentration of one partner at which half of the binding sites on the other are occupied at equilibrium, for simple one-to-one binding. Usually koff stands for the first-order rate constant of dissociation. Read a low koff as slow dissociation. The kon is the rate constant with which the complex forms.

For 对照 (antibody), in assay [1], the Kd was 9.01 nM, the koff is 0.000219 s⁻¹ and the kon stood at 24300 M⁻¹ s⁻¹.

B1: Anti-SAA-11A4mut1 (antibody, mouse IgG1, kappa, V domains shown)
VH: QVQLQQSGAELVRPGVSVKISCKGSGYTFTDYAMHWVKQSHAKSLEWIGVINTYYGDASYNQKFKGKATMTEDKSSSTVYMELARLTSEDSAIYYCARGSSIMITSWFAYWGQGTLVTVSA
VL: DIQMTQSPASLSASVGETVTITCRASENIYSYLAWYQQKQGKSPQLLVYNAKTLAEGVPSRFSGSGSGTQFSLKINSLQPEDFGSYYCQHHYGTPLTFGTGTKLELKR
As to B1, in assay [2], binding was characterised by a dissociation constant (Kd) of 0.0322 nM, the koff was determined as 1.12e-06 s⁻¹ and the kon turned out to be 34800 M⁻¹ s⁻¹.

B2: Anti-SAA-11A4mut3 (antibody, V domains shown)
VH: B1 VH
VL: B1 VL with L96I
In assay [2], B2 showed a Kd of 0.0386 nM, a koff of 1.3e-06 s⁻¹ and a kon of 33700 M⁻¹ s⁻¹.

B3: Anti-SAA-11A4mut2 (antibody, mouse IgG1, kappa, V domains shown)
VH: B1 VH with I102L
VL: B1 VL
In assay [2], B3 had a Kd of 0.827 nM, a koff of 3.05e-05 s⁻¹ and an association rate constant (kon) of 36900 M⁻¹ s⁻¹.
